Results as given in the supplement of paper PMC7125110.
± gives the standard error. For some of these results: Fewer inactive variants are shown than the library holds.

B1: glmS ribozyme (parent)
chain: AUAAAAGCGCCAGAACUACAGAAAUGUAGUUGACGAGGAGGAGGUUUAUCGAAUUUUCGGCGGAUGCCUCCAAA

Assays:
Conditions in all cases: with glucosamine-6-phosphate
[1] = variants of: B1; assay: kcat; higher = faster cleavage; RNA array
In short: (§1)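 kcat and KM were obtained from weighted Michaelis–Menten fits across concentrations of kobs values. Those came from one- or two-exponential decay fits to per-tile medians normalised to baseline and to non-cleaving reference variants. The variants were barcoded ribozymes transcribed in situ by E. coli RNA polymerase on sequenced MiSeq chips and tracked through a hybridised Cy3 probe at 37 °C, with 40 μM to 10 mM glucosamine-6-phosphate in HEPES/KCl/Mg(OAc)2 buffer flowed in.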

[2] = variants of: B1; assay: self-cleavage kobs at 10000 uM GlcN6P; higher = faster cleavage; RNA array
In short: as §1

[3] = variants of: B1; assay: self-cleavage kobs at 40 uM GlcN6P; higher = faster cleavage; RNA array
In short: as §1

[4] = variants of: B1; assay: self-cleavage kobs at 160 uM GlcN6P; higher = faster cleavage; RNA array
In short: as §1

[5] = variants of: B1; assay: KM; higher = weaker cofactor use; RNA array
In short: as §1

[6] = variants of: B1; assay: self-cleavage kobs at 640 uM GlcN6P; higher = faster cleavage; RNA array
In short: as §1

[7] = variants of: B1; assay: self-cleavage kobs at 2500 uM GlcN6P; higher = faster cleavage; RNA array
In short: as §1

Variant	kcat [1]	self-cleavage kobs at 10000 uM GlcN6P [2]	self-cleavage kobs at 40 uM GlcN6P [3]	self-cleavage kobs at 160 uM GlcN6P [4]	KM [5]	self-cleavage kobs at 640 uM GlcN6P [6]	self-cleavage kobs at 2500 uM GlcN6P [7]
C10A U56A	< 1e-05 s⁻¹	< 1e-05 s⁻¹					
C16A G63U	< 1e-05 s⁻¹	< 1e-05 s⁻¹	< 1e-05 s⁻¹	< 1e-05 s⁻¹			
A15U U54C	0.00568 ± 0.0015 s⁻¹	0.00553 ± 0.00066 s⁻¹	0.000186 ± 2.3e-05 s⁻¹	0.000292 ± 0.0001 s⁻¹	1560 ± 660 µM	0.00189 ± 0.0003 s⁻¹	0.00297 ± 0.00042 s⁻¹
U56C C58A	0.000232 ± 6.7e-05 s⁻¹	0.000146 ± 1.9e-05 s⁻¹				3.8e-05 ± 1.6e-05 s⁻¹	5.91e-05 ± 1.6e-05 s⁻¹
G13A U69C	0.000255 ± 8.6e-05 s⁻¹	0.000179 ± 4.5e-05 s⁻¹					0.000132 ± 2.8e-05 s⁻¹
G44C U47G G66U C67G	0.000596 ± 0.00019 s⁻¹	0.000455 ± 0.00013 s⁻¹				0.000152 ± 5e-05 s⁻¹	0.000668 ± 0.00032 s⁻¹
G32A G41A	0.00039 ± 9.1e-05 s⁻¹	0.000279 ± 3e-05 s⁻¹			4740 ± 2000 µM	6.12e-05 ± 1.1e-05 s⁻¹	0.000116 ± 1.6e-05 s⁻¹
C10G C11A	< 1e-05 s⁻¹		< 1e-05 s⁻¹			< 1e-05 s⁻¹	
A33C G41U	< 1e-05 s⁻¹					< 1e-05 s⁻¹	
A12U G37U	3.51e-05 ± 1.1e-05 s⁻¹						
A6U U55A	0.000365 ± 1.1e-05 s⁻¹	0.000291 ± 3.4e-05 s⁻¹			2630 ± 160 µM	7.22e-05 ± 1.3e-05 s⁻¹	0.000173 ± 3.5e-05 s⁻¹
G37U C70A	1.53e-05 ± 2e-06 s⁻¹						
A14U A36U	< 1e-05 s⁻¹	< 1e-05 s⁻¹		< 1e-05 s⁻¹			< 1e-05 s⁻¹
U30C U46A	1.46e-05 ± 6.8e-06 s⁻¹		< 1e-05 s⁻¹				
G32A G40A	0.000781 ± 2.4e-05 s⁻¹	0.000639 ± 8.9e-05 s⁻¹		5.38e-05 ± 1.8e-05 s⁻¹	2220 ± 130 µM	0.000175 ± 3.4e-05 s⁻¹	0.000414 ± 6.4e-05 s⁻¹
G32C C50U	< 1e-05 s⁻¹	< 1e-05 s⁻¹				< 1e-05 s⁻¹	
G44A U45C	0.000855 ± 6.9e-05 s⁻¹	0.000674 ± 6.5e-05 s⁻¹		4.01e-05 ± 1.9e-05 s⁻¹	2540 ± 420 µM	0.000171 ± 2.7e-05 s⁻¹	0.000496 ± 0.00011 s⁻¹
G38U A53C C70U	< 1e-05 s⁻¹						< 1e-05 s⁻¹
G37C C58A G66A C70A C71A	2.19e-05 ± 8.6e-06 s⁻¹						

Variant	kcat [1]	self-cleavage kobs at 10000 uM GlcN6P [2]	self-cleavage kobs at 40 uM GlcN6P [3]	self-cleavage kobs at 160 uM GlcN6P [4]	KM [5]	self-cleavage kobs at 640 uM GlcN6P [6]	self-cleavage kobs at 2500 uM GlcN6P [7]
U54C U69G	6.89e-05 ± 7.2e-06 s⁻¹	5.47e-05 ± 1.8e-05 s⁻¹		3.54e-05 ± 1.6e-05 s⁻¹		5.03e-05 ± 1.1e-05 s⁻¹	7.28e-05 ± 1.1e-05 s⁻¹
U31C A48U	6.21e-05 ± 6.5e-06 s⁻¹	4.85e-05 ± 9.7e-06 s⁻¹	< 1e-05 s⁻¹	< 1e-05 s⁻¹	2780 ± 1100 µM		
U30A U57G	2.86e-05 ± 9.5e-06 s⁻¹						3.99e-05 ± 1.7e-05 s⁻¹
A6U G38C	< 1e-05 s⁻¹		< 1e-05 s⁻¹	< 1e-05 s⁻¹	3580 ± 1000 µM	< 1e-05 s⁻¹	
U31A U55G C67G	0.000655 ± 6.8e-05 s⁻¹	0.000735 ± 0.00019 s⁻¹	5.68e-05 ± 1.9e-05 s⁻¹	0.000166 ± 5.4e-05 s⁻¹	428 ± 100 µM	0.000467 ± 0.00012 s⁻¹	0.000505 ± 9.5e-05 s⁻¹
U47C U56C	0.00115 ± 0.00017 s⁻¹	0.000972 ± 0.00016 s⁻¹			1940 ± 650 µM	0.000323 ± 7.3e-05 s⁻¹	0.00061 ± 0.00012 s⁻¹
G66A C70U	0.0162 ± 0.0065 s⁻¹	0.0185 ± 0.0034 s⁻¹	0.00075 ± 0.0001 s⁻¹	0.00153 ± 0.00021 s⁻¹		0.00577 ± 0.00081 s⁻¹	0.00738 ± 0.0024 s⁻¹
A39C G44C	1.03e-05 ± 1.3e-06 s⁻¹			< 1e-05 s⁻¹	3630 ± 1200 µM		
A6G G32A	< 1e-05 s⁻¹		< 1e-05 s⁻¹				
C61A C67U C71U	5.2e-05 ± 2.5e-05 s⁻¹					8.57e-05 ± 2.8e-05 s⁻¹	
C16G C61U	< 1e-05 s⁻¹		< 1e-05 s⁻¹	< 1e-05 s⁻¹			
A14G U45A	0.077 ± 0.015 s⁻¹	0.0701 ± 0.026 s⁻¹	0.00233 ± 0.00047 s⁻¹	0.00764 ± 0.0014 s⁻¹	1340 ± 310 µM	0.0331 ± 0.0099 s⁻¹	0.0452 ± 0.016 s⁻¹
G51A G62U	< 1e-05 s⁻¹			< 1e-05 s⁻¹			
C34G C61G	< 1e-05 s⁻¹		< 1e-05 s⁻¹			< 1e-05 s⁻¹	
G29U U54G	0.00305 ± 0.00096 s⁻¹	0.00321 ± 0.00046 s⁻¹	7.25e-05 ± 1.3e-05 s⁻¹	0.000223 ± 4.1e-05 s⁻¹	1760 ± 820 µM	0.00114 ± 0.00016 s⁻¹	0.0013 ± 0.00024 s⁻¹
A12C G32C	2.92e-05 ± 1.3e-06 s⁻¹	2.2e-05 ± 6.6e-06 s⁻¹	< 1e-05 s⁻¹		3260 ± 500 µM		
U31C G41C	4.88e-05 ± 2e-05 s⁻¹						
G38U U57A	1.47e-05 ± 4.2e-06 s⁻¹					< 1e-05 s⁻¹	
C11U G59A	0.0105 ± 0.0043 s⁻¹	0.0116 ± 0.0016 s⁻¹	0.000335 ± 3.7e-05 s⁻¹	0.0014 ± 0.00027 s⁻¹		0.00203 ± 0.0004 s⁻¹	0.00582 ± 0.0018 s⁻¹
